Data taken from US20050153310A1 (PROMEGA, published 2005).

Target: FKBP (FK506 binding protein) (UniProt P62942 2-108)
Test: cell-based or functional assay

Sequence of FKBP (FK506 binding protein) (P62942 2-108): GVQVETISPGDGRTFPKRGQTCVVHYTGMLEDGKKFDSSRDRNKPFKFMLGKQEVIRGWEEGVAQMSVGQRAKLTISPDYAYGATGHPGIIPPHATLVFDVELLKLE

B1: FRB (rapamycin binding protein) (other)
chain: ILWHEMWHEGLEEASRLYFGERNVKGMFEVLEPLHAMMERGPQTLKETSFNQAYGRDLMEAQEWCRKYMKSGNVKDLTQAWDLYYHVFRRISK
B1 was tested, and the “fold decrease in relative luminescence of the in vitro translated double fusion FRB-luc2-FKBP with 0.2 uM rapamycin, compared to the control reactions” value was 20 fold, the “luminescent signal of D293 cells transfected with FRB-Luc2-FKBP under the CMV promoter, with rapamycin” value was at most 2 fold and the “luminescent signal of D293 cells transfected with FRB-Luc2-FKBP under the TK promoter, with rapamycin” value was at most 5 fold.
